The values below come from patent US20030220239A1 (published 2003).

Assay [1] addresses HLA-A2.1 (HLA-A*0201) on T2 cells (human). The assay is described as follows: T2 cell HLA-A2.1 stabilisation, flow cytometry. Background: In flow cytometry, cells or beads pass a laser one at a time.
Description: Peptide was mixed with the cells by repipeting before distributing to the plate (alternatively peptide can be added to individual wells), and the plate was rocked gently for 2 minutes. Incubation was in a 5% CO₂ incubator at 37° C. The next day the unbound peptide was removed by washing twice with serum free RPMI medium and a saturating amount of anti-class I HLA monoclonal antibody, fluorescein isothiocyanate (FITC)-conjugated anti-HLA A2, A28 (One Lambda, Canoga Park, Calif.) was added. After incubation for 30 minutes at 4° C., cells were washed 3 times with PBS supplemented with 0.5% BSA, 0.05% (w/v) sodium azide, pH 7.4-7.6 (staining buffer). (Alternatively W6/32 (Sigma) can be used as the anti-class I HLA monoclonal antibody the cells washed with staining buffer and then incubated with fluorescein isothiocyanate (FITC)-conjugated goat F(ab′) antimouse-IgG (Sigma) for 30 min at 4° C. and washed 3 times as before.) The cells were resuspended in 0.5 ml staining buffer. […] If flow cytometry is not to be performed immediately the cells can be fixed by adding a quarter volume of 2% paraformaldehyde and storing in the dark at 4° C.
Assay [2] has the same target. The assay is described as follows: T2 cell HLA-A*0201 stabilisation, flow cytometry.
Assay [3] has the same target. The assay is described as follows: T2 cell HLA-A2 stabilisation, flow cytometry.

Take KASEKIFYV [SSX-2 41-49, KASEKIFYV]: the binding result in assay [1] was “binds”. MMNDQLMFL [PSMA663-671 (SEQ ID NO. 66)]: the binding result in assay [2] is on record as “binds”. Turning to FLPWHRLFL (also called Tyr 207-215) [tyrosinase207-215, FLPWHRLFL], in assay [3], the binding result was “binds”. On the same count and under the same terms, next, LPWHRLFLL (also called Tyr 208-216) [tyrosinase208-216, LPWHRLFLL]: “binds”.
